Reference: patent US20050186575A1

Tests used:
[1] = molecular target: HR1 peptide of the SARS-CoV spike protein (SARS-CoV); experiment: pooled complexes heated 5 min in 1x Tricine sample buffer, Tricine SDS-PAGE
[2] = molecular target: MHV-A59 spike protein (mouse hepatitis virus strain A59) (UniProt P11224); experiment: cell-based or functional assay
[3] = molecular target: T1, HR1 peptide of the MHV-A59 spike protein (amino acid residues 953-1048) (mouse hepatitis virus strain A59), P11224; experiment: pooled complexes heated 5 min in 1x Tricine sample buffer, Tricine SDS-PAGE
[4] = molecular target: T1, HR1 peptide of the MHV-A59 spike …

T1 sequence (P11224 953-1048, tags left off): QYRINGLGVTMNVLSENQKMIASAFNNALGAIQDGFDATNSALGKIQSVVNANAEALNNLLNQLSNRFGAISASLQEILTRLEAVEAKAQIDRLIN

## HR2 peptide of the SARS-CoV spike protein
[1]
  temperature of dissociation of the complex: 70 °C

## HR2 peptide of the MHV-A59 spike protein (amino acid residues 1216-1254)
[2]
  EC50 of inhibition of MHV infection of LR7 cells: 0.9 µM
  spike-mediated cell-cell fusion (luciferase activity) (fold reduction at 10 µM): 1000

## GPIEGRDLSLDFEKLNVTLLDLTYEMNRIQDAIKKLNESYINLKE (modifications not checked) [HR2 peptide of the MHV-A59 spike protein (amino acid residues 1216-1254)]
[3]
  temperature of dissociation of the complex: 90 °C
[4]
  temperature of full dissociation of the complex: 90 °C
  temperature of partial dissociation of the complex: 80 °C
  temperature up to which the complex remained intact: 70 °C
